Test results from the supplement of paper PMC6757056.
± gives the standard deviation of the averaged measurements.

B1: library; a variant is named by its letters at N, in order (parent)
chain: GCUGUCACCGGUGCUUGGUACGUUAUAUUCAGCCGGUCUGAUGAGUCUNNNNNNAGACGAAACAGC
B2: library; a variant is named by its letters at N, in order (parent)
chain: GCUGUCACCGAGAAACUGUGAAGUAUAUCUUAAACCUGGGCACUUAAAAGAUAUAUGGAGUUAGUAGUGCAACCUGCUCGGUCUGAUGAGUCCNNNNNNGGACGAAACAGC

Assays:
[1] = variants of: B1; experiment: normalized RNA/DNA level without ligand (relative to sTRSVctl = 100) (log10 (% of sTRSVctl)); HEK293T overexpressing SLC46A1; higher = less ribozyme self-cleavage, higher mRNA level; settings: without (6R,S)-folinic acid; ligand present: no
Method in brief: (§1)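 Ribozyme switch library plasmids with mCherry reporters (eGFP in certain ligand experiments) went into HEK293T cells at 4 µg per 6-well well. Where ligand was used, it was applied 1 h before transfection, and total RNA was extracted with EDTA 72 h later for reverse transcription, amplification, barcoding and sequencing. RNA level is the RNA-to-DNA read ratio normalized to a spiked-in non-cleaving sequence or to the leading sequences, then scaled and log-transformed. Scaling was ×100 with log10, the leading set comprised 25 sequences, and the cutoff was ≥100 DNA reads.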

[2] = variants of: B1; experiment: normalized RNA/DNA level with ligand (relative to sTRSVctl = 100) (log10 (% of sTRSVctl)); HEK293T overexpressing SLC46A1; ligand concentration (+) RNA-Seq: 6 mM; higher = less ribozyme self-cleavage, higher mRNA level; settings: with (6R,S)-folinic acid; ligand present: yes
Method in brief: as §1

[3] = variants of: B2; experiment: FACS-Seq fitted mean relative fluorescence mCherry/BFP without ligand (log10 relative fluorescence); HEK293T; ligand: cyclic di-GMP (c-di-GMP-II aptamer); higher = higher reporter protein expression; settings: ligand present: no
Method: (§2)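 Hammerhead (sTRSV) ribozyme switch libraries with a ligand aptamer grafted on stem I and a randomized N4-6 loop II, cloned into the 3' UTR of mCherry and transiently transfected into HEK293T cells; RNA-Seq 72 h post transfection with ligand added 1 h before transfection; RNA read count / plasmid DNA read count normalized to the non-cleaving sTRSVctl (x100), log10; sequences with >100 DNA reads. FACS-Seq: lentiviral library sorted into 6 bins after 48 h ligand, log-normal fit mean of mCherry/BFP scaled to controls. Printed sequences are partial switch sequences.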

[4] = variants of: B2; experiment: normalized RNA/DNA level without ligand (relative to sTRSVctl = 100) (log10 (% of sTRSVctl)); HEK293T; ligand: cyclic di-GMP (c-di-GMP-II aptamer); higher = less ribozyme self-cleavage, higher mRNA level; settings: reporter: mCherry (pCS4076), ligand present: no
Method: as §2

[5] = variants of: B2; experiment: FACS-Seq fitted mean relative fluorescence mCherry/BFP with ligand (log10 relative fluorescence); HEK293T; ligand: cyclic di-GMP (c-di-GMP-II aptamer); ligand concentration (+) FACS-Seq: 1 mM; higher = higher reporter protein expression; settings: ligand present: yes
Method: as §2

[6] = variants of: B2; experiment: normalized RNA/DNA level with ligand (relative to sTRSVctl = 100) (log10 (% of sTRSVctl)); HEK293T; ligand: cyclic di-GMP (c-di-GMP-II aptamer); ligand concentration (+) RNA-Seq: 1 mM; higher = less ribozyme self-cleavage, higher mRNA level; settings: reporter: mCherry (pCS4076), ligand present: yes
Method: as §2

Variant | normalized RNA/DNA level without ligand (log10) [1] | normalized RNA/DNA level with ligand (log10) [2] | further results
GUUUGA | 2.013 ± 0.0046 | 2.05 ± 0.034 | 
GUUUGG | 1.985 ± 0.015 | 2.03 ± 0.044 | 
GUUUGC | 1.951 ± 0.018 | 2.02 ± 0.067 | 
CUUUGA | 2.024 ± 0.004 | 2.05 ± 0.036 | 
CUUUGG | 2.023 ± 0.0097 | 1.994 ± 0.013 | 
CUUUGC | 2.047 ± 0.017 | 2.027 ± 0.016 | 
CUUUGU | 1.986 ± 0.008 | 1.99 ± 0.022 | 
GUUUUG | 2.007 ± 0.0091 | 2.02 ± 0.049 | 
GUUUUU | 2.015 ± 0.0093 | 2 ± 0.02 | 
UUUUGU | 1.957 ± 0.014 | 2 ± 0.046 | 
UUUUGC | 1.959 ± 0.0097 | 1.93 ± 0.055 | 
CUUUUA | 1.988 ± 0.012 | 2 ± 0.052 | 
CUUUUG | 2.0401 ± 0.001 | 2.04 ± 0.029 | 
CUUUCC | 2.02 ± 0.03 | 2 ± 0.021 | 
CUUUCG | 2.047 ± 0.0046 | 2.053 ± 0.0034 | 
CUUUCU | 1.998 ± 0.005 | 1.99 ± 0.035 | 
UUUUUC | 2.05 ± 0.026 | 2.01 ± 0.026 | 

Variant | normalized RNA/DNA level without ligand (log10) [1] | normalized RNA/DNA level with ligand (log10) [2] | further results
UUUUUA | 2.002 ± 0.0053 | 2.007 ± 0.014 | 
UUUUUU | 2.017 ± 0.014 | 2.03 ± 0.032 | 
AUUUUU | 1.989 ± 0.017 | 2.01 ± 0.029 | 
AUUUGU | 1.945 ± 0.002 | 2.02 ± 0.042 | 
AUUUGC | 2 ± 0.02 | 1.99 ± 0.026 | 
AUUUGA | 1.965 ± 0.0074 | 2 ± 0.053 | 
GUUUCC | 2.021 ± 0.015 | 2 ± 0.068 | 
GUUUCG | 1.99 ± 0.027 | 1.99 ± 0.039 | 
GUUUCU | 1.965 ± 0.012 | 1.97 ± 0.068 | 
UUUUCC | 2.02 ± 0.022 | 2 ± 0.032 | 
UUUUCU | 2.012 ± 0.011 | 2.01 ± 0.038 | 
UUUUCG | 1.87 ± 0.018 | 1.998 ± 0.0083 | 
AUUUCG | 1.961 ± 0.016 | 2 ± 0.026 | 
AUUUCU | 2.03 ± 0.025 | 2.034 ± 0.019 | 
AUUUCC | 2.048 ± 0.0099 | 2.037 ± 0.01 | 
CAAUCC |  |  | FACS-Seq fitted mean (log10) [3]: -0.487 ± 0.028; normalized RNA/DNA level without ligand (log10) [4]: 1.75 ± 0.049; FACS-Seq fitted mean (log10) [5]: -0.368 ± 0.016; normalized RNA/DNA level with ligand (log10) [6]: 1.87 ± 0.11
